Assay results as given in patent US20070065429A1, “Nogo-receptor antagonists for the treatment of conditions involving amyloid plaques” (Biogen Idec MA Inc., priority 2003, published 2007).

T1: NgR (Homo sapiens, UniProt Q9BZR6)
T1 construct: expressed in transfected cells; host or cells: COS cells
T1 sequence (Q9BZR6 27-473): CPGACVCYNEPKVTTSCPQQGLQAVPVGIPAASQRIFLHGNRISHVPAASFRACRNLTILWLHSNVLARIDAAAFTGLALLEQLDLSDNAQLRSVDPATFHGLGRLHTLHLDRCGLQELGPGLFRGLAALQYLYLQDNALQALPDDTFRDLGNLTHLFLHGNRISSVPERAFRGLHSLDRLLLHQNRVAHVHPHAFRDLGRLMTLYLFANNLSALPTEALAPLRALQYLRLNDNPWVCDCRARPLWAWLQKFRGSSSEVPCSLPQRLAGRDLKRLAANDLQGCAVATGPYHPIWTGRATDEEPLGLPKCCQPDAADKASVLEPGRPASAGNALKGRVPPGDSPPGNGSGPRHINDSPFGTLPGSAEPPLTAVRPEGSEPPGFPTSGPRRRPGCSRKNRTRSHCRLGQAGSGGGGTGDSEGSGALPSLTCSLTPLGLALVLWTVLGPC


Columns and labels:
NgR = molecular target: T1, NgR; assay: AP-Aβ(1-28) fusion protein binding to NgR-expressing COS cells; details: not to vector-transfected COS cells
Description: We then investigated whether the Aβ region of APP is involved in its interaction with NgR—including whether the fibrillogenic Aβ42-3 peptide binds NgR. We created two fusion protein constructs containing alkaline phosphatase (AP) and the hydrophilic region of Aβ (amino acids 1-28) by fusing the coding sequence in frame with the signal sequence-6×His-placental alkaline phosphatase (AP) sequence of the vector pAP-6 (Nakamura et al., Neuron 2: 1093-1100, 1988). The AP-Aβ and Aβ-AP proteins both bound to NgR-expressing COS cells but not to vector-transfected COS cells. This binding was saturable with an apparent Kd of 60 nM. The interaction also was detected using purified Biotin-Aβ(1-40) in an ELISA-type assay with immobilized NgR.

Aβ peptides = assay: Aβ peptide binding to wells coated with purified sNgR-Fc
Method: We analyzed whether Aβ (1-28) binding competed for NgR binding with other known ligands for NgR by allowing 250 nM soluble AP-Aβ(1-28) or AP-Nogo (1-33) to bind to wells coated with purified sNgR310-Fc in the presence of various concentrations of competing free Aβ. […] We observed that the Aβ peptides bind to both sNgR310-Fc and sNgR344-Fc. […] However, Aβ(1-28) displaced Aβ-AP binding but not AP-Nogo-66 (1-33) or AP-OMgp binding in competition assays. The Aβ peptide may begin to displace AP-MAG very slightly at high concentrations in our experiments. Thus, the Aβ binding site on NgR appears largely distinct from that for the myelin ligands NogoA, OMgp and MAG. Consistent with this, the presence of Aβ had little effect on myelin or Nogo-66 inhibition of neurite outgrowth.

[1] = system: APPsw/PSEN-1(DeltaE9) double transgenic mice; assay: Intracerebroventricular infusion into APPsw/PSEN-1(DeltaE9) double transgenic mice; assay type: in vivo; details: 2.5 mg per mouse over 56 days
Description: To examine the role of the NgR/APP/AB interactions in vivo, sNgR310-Fc (a NgR antagonist; see International Patent Application PCT/US03/25004) was infused into APPsw/PSEN-1(DeltaE9) double transgenic mice (from Jackson Laboratories). The sNgR310-Fc protein contains the entire LRR ligand-binding of the NgR fused to the Fc portion of IgG. To administer sNgR310-Fc protein, 5-month-old mice were anesthetized with isoflurane/oxygen and a burr hole was drilled in the skull. A cannula (ALZET brain infusion kit II, Alza Scientific Products, Palo Alto, Calif.) was introduced into the right lateral ventricle at stereotaxic coordinates 0.6 mm posterior and 1.2 mm lateral to bregma and 4.0 mm deep to the pial surface. The cannula was held in place with cyanoacrylate and the catheter was attached to a subcutaneous osmotic minipump (Alzet 2ML4). The pump delivered 2.5 μl/hr for 28 days of a 1.2 mg/ml solution of sNgR310-Fc or rat IgG in PBS (control mice received rat IgG since both the NgR and the Pc moiety were of rat origin). Pumps were replaced after 28 days and connected to the same cannula. The total dose of protein infused was 2.5 mg per mouse over 56 days. At the end of this period, mice were sacrificed and brain AB levels were measured using an ELISA kit from Biosource International according to the manufacturer's instructions. Aβ deposition into amyloid plaques was assessed by anti-Aβ immunohistochemistry as follows. Aβ plaques in sagittal sections of 4% paraformaldehyde fixed brain were detected immunohistologically with anti-Aβ(1-17) 6E10 antibody after 0.1 M formic acid treatment for antigen recovery. Plaque area was quantitated using NIH Image as a percentage of cerebral cortical area for 3 sections from each animal.

| Molecule | binding to NgR-expressing COS cells (NgR) | binding of Aβ peptides (Aβ peptides) | deposition of immunoreactive Aβ into plaque ([1]; right lateral ventricle, vs rat IgG, anti-Aβ immunohistochemistry) | decrease of total level of Aβ(1-40) in the brain ([1]; right lateral ventricle, ELISA) | decrease of total level of Aβ(1-42) in the brain ([1]; right lateral ventricle, ELISA) | sAPPα levels in the brains ([1]; immunoprecipitation and immunoblot) |
| --- | --- | --- | --- | --- | --- | --- |
| AP-Aβ: fusion protein of alkaline phosphatase (AP) and the hydrophilic region of Aβ (amino acids 1-28) (protein) HHHHHHIIPVEEENPDFWNREAAEALGAAKKLQPAQTAAKNLIIFLGDGMGVSTVTAARILKGQKKDKLGPEIPLAMDRFPYVALSKTYNVDKHVPDSGATATAYLCGVKGNFQTIGLSAAARFNQCNTTRGNEVISVMNRAKKAGKSVGVVTTTRVQHASPAGTYAHTVNRNWYSDADVPASARQEGCQDIATQLISNMDIDVILGGGRKYMFRMGTPDPEYPDDYSQGGTRLDGKNLVQEWLAKRQGARYVWNRTELMQASLDPSVTHLMGLFEPGDMKYEIHRDSTLDPSLMEMTEAALRLLSRNPRGFFLFVEGGRIDHGHHESRAYRALTETIMFDDAIERAGQLTSEEDTLSLVTADHSHVFSFGGYPLRGSSIFGLAPGKARDRKAYTVLLYGNGPGYVLKDGARPDVTESESGSPEYRQQSAVPLDEETHAGEDVAVFARGPQAHLVHGVQEQTFIAHVMAFAACLEPYTACDLAPPAGTTDAAHPGDAEFRHDSGYEVHHQKLVFFAEDVGSNK | bound |  |  |  |  |  |
| sNgR344-Fc: rat soluble NgR 344 Fc fusion (protein, left off: a dimerising Fc or GST, rat soluble NgR 344 Fc fusion) CPGACVCYNEPKVTTSRPQQGLQAVPAGIPASSQRIFLHGNRISYVPAASFQSCRNLTILWLHSNALAGIDAAAFTGLTLLEQLDLSDNAQLRVVDPTTFRGLGHLHTLHLDRCGLQELGPGLFRGLAALQYLYLQDNNLQALPDNTFRDLGNLTHLFLHGNRIPSVPEHAFRGLHSLDRLLLHQNHVARVHPHAFRDLGRLMTLYLFANNLSMLPAEVLVPLRSLQYLRLNDNPWVCDCRARPLWAWLQKFRGSSSGVPSNLPQRLAGRDLKRLATSDLEGCAVASGPFRPFQTNQLTDEELLGLPKCCQPDAADKA |  | bind |  |  |  |  |
| sNgR310-Fc: contains the entire LRR ligand-binding of the NgR fused to the Fc portion of IgG; NgR and Fc of rat origin (protein, left off: a dimerising Fc or GST, NgR and Fc of rat origin) CPGACVCYNEPKVTTSRPQQGLQAVPAGIPASSQRIFLHGNRISYVPAASFQSCRNLTILWLHSNALAGIDAAAFTGLTLLEQLDLSDNAQLRVVDPTTFRGLGHLHTLHLDRCGLQELGPGLFRGLAALQYLYLQDNNLQALPDNTFRDLGNLTHLFLHGNRIPSVPEHAFRGLHSLDRLLLHQNHVARVHPHAFRDLGRLMTLYLFANNLSMLPAEVLVPLRSLQYLRLNDNPWVCDCRARPLWAWLQKFRGSSSGVPSNLPQRLAGRDLKRLATSDLEGCA |  | bind | significantly reduced | 50% | 50% | decreased |
